For test [1], the target named is T1, murine LRIG1.ECD.His recombinant protein (mouse, UniProt P70193 35-796).
T1 sequence (looked up): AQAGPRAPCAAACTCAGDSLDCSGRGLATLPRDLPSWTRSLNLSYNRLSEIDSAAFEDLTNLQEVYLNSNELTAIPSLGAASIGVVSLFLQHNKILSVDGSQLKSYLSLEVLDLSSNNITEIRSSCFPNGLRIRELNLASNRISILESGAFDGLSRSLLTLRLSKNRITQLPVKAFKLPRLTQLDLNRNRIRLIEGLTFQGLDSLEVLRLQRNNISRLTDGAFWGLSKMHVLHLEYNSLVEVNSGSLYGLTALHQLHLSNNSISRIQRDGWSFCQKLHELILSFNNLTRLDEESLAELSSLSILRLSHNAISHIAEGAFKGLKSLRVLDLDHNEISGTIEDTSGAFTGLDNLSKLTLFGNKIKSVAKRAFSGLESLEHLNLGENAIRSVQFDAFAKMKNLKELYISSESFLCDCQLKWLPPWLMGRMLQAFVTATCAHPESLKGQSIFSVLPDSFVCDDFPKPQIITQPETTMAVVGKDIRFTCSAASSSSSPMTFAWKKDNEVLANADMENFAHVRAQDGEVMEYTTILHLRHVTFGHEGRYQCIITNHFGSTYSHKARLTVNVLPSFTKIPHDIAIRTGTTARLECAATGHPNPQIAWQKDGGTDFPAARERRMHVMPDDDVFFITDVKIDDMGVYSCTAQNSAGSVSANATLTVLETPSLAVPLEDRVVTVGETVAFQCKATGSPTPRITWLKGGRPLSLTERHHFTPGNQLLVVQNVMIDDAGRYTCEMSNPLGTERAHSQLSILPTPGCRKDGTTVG
In words: SPR. A general note: SPR reads the build-up and loss of mass on a sensor chip optically.

Test [2] deals with T1, murine LRIG1.ECD.His recombinant protein. In words: SPR. The source holds these as a separate data set.

As a reminder, the Kd is the constant that tells how readily two partners part at equilibrium.

Where two headings read alike, the source gives them in different places.

B1: murine VISTA.Fc recombinant protein (VISTA.ECD) (Fc fusion, UniProt Q9D659 33-191, looked up)
chain: FKVTTPYSLYVCPEGQNATLTCRILGPVSKGHDVTIYKTWYLSSRGEVQMCKEHRPIRNFTLQHLQHHGSHLKANASHDQPQKHGLELASDHHGNFSITLRNVTPRDSGLYCCLVIELKNHHPEQRFYGSMELQVQAGKGSGSTCMASNEQDSDSITAA
Regarding B1, the dissociation constant (Kd) was determined as 3.44 nM in test [1] and 1.2 nM in test [2].

The values above are taken from publication PMC11334715 (Science immunology, 2024).
